Measurements taken from article PMC9705548, “Altered tRNA processing is linked to a distinct and unusual La protein in Tetrahymena thermophila”.

Legend:
Mlp1 [1] = molecular target: T1, Mlp1 (Tetrahymena thermophila, UniProt Q23RK6 1-340); test: competition; EMSA: 20 mM Tris-HCl pH 7.4, 100 mM KCl, 1 mM EDTA, 5 mM beta-mercaptoethanol, 10% glycerol; ~0.1 nM RNA refolded from 95 C; 30 min at 30 C; 8% native PAGE at 4 C; conditions: protein: recombinant; tags: N-terminal 6xHis (pET28a); label: none
T1 sequence: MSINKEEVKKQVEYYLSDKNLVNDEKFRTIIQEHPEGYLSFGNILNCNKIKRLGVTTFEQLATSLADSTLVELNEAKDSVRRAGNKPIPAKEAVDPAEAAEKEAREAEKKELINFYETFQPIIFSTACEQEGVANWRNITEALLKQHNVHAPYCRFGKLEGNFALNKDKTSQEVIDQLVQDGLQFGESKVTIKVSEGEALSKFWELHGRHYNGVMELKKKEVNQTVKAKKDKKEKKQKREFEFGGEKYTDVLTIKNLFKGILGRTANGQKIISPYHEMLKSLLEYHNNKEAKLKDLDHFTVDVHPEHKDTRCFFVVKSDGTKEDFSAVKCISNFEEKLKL

Mlp1 [2] = molecular target: T1, Mlp1; test: EMSA; 20 mM Tris-HCl pH 7.4, 100 mM KCl, 1 mM EDTA, 5 mM beta-mercaptoethanol, 10% glycerol; ~0.1 nM RNA; 30 min at 30 C; 8% native PAGE at 4 C; conditions: protein: recombinant, tags: N-terminal 6xHis (pET28a)
Mlp1 [3] = molecular target: T1, Mlp1; test: EMSA; EMSA: 20 mM Tris-HCl pH 7.4, 100 mM KCl, 1 mM EDTA, 5 mM beta-mercaptoethanol, 10% glycerol; ~0.1 nM RNA refolded from 95 C; 30 min at 30 C; 8% native PAGE at 4 C; conditions: protein: recombinant, tags: N-terminal 6xHis (pET28a)
Mlp1 1-95 = molecular target: T2, Mlp1 1-95 (Tetrahymena thermophila, UniProt Q23RK6 1-95); test: as above; conditions: protein: recombinant; tags: N-terminal 6xHis (pET28a); label: 32P
T2 sequence: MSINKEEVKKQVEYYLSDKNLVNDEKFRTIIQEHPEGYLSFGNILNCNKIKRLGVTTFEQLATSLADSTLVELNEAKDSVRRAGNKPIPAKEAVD

Mlp1 95-250 = molecular target: T3, Mlp1 95-250 (Tetrahymena thermophila, UniProt Q23RK6 95-250); test: as above; conditions: protein: recombinant; tags: N-terminal 6xHis (pET28a); label: 32P
T3 sequence: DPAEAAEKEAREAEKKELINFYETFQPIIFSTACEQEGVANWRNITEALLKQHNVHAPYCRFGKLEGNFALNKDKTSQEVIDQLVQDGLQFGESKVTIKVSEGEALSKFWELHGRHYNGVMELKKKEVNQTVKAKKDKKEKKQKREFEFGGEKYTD

Mlp1 1-250 = molecular target: T4, Mlp1 1-250 (Tetrahymena thermophila, UniProt Q23RK6 1-250); test: as above; conditions: protein: recombinant; tags: N-terminal 6xHis (pET28a)
T4 sequence: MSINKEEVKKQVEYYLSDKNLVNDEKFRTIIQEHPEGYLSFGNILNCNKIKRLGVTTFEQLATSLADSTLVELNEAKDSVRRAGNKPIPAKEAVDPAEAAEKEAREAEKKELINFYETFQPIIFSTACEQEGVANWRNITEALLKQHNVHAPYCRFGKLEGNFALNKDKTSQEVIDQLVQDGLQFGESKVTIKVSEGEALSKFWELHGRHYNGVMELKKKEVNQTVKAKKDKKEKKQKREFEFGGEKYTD

Mlp1 Q11A/Y14A = molecular target: T5, Mlp1 Q11A/Y14A (Tetrahymena thermophila, UniProt Q23RK6 1-340, Q11A;Y14A); test: as above; conditions: protein: recombinant; tags: N-terminal 6xHis (pET28a)
T5 sequence: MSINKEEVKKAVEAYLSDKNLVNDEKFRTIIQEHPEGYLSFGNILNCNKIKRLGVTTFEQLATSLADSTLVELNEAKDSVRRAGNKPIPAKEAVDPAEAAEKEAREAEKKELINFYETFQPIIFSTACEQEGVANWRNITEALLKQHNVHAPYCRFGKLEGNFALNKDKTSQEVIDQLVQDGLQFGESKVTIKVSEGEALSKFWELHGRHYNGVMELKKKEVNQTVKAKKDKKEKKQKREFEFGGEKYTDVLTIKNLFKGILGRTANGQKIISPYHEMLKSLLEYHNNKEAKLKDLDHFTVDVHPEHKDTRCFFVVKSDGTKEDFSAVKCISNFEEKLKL

hLa = molecular target: T6, hLa (Homo sapiens, UniProt P05455 1-408); test: competition; EMSA: 20 mM Tris-HCl pH 7.4, 100 mM KCl, 1 mM EDTA, 5 mM beta-mercaptoethanol, 10% glycerol; ~0.1 nM RNA refolded from 95 C; 30 min at 30 C; 8% native PAGE at 4 C; conditions: protein: recombinant; tags: 6xHis (encoded in reverse primer, pET28a); label: none
T6 sequence: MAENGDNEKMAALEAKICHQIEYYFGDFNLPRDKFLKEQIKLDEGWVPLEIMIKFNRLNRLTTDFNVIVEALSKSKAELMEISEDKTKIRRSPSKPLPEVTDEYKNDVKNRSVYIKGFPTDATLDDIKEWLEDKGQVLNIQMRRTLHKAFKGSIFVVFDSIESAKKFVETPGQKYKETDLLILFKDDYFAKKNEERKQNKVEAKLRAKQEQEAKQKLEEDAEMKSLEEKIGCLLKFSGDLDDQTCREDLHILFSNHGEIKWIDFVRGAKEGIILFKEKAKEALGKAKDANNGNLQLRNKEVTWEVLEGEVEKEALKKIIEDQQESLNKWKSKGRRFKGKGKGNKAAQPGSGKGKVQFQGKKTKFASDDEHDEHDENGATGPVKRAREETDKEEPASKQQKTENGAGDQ

[4] = label: 32P-UTP body label, tRNA fold

CUGCUGUCUU (ssRNA) [U-3C]
binding result (Mlp1 [1]): binds

B1: pre-tRNA GlnUUA 5'-leader only (structured_RNA)
RNA: GCAUGUCCGGUUCCAUAGUAUAGUGGUUAGUACUGGGGACUUUAAAUCCCUUGACCUGGGUUCGAAUCCCAGUGGGACCU
Kd (Mlp1 [2]; label: 32P-UTP body label): 804 ± 16 nM

B2: pre-tRNA GlnUUA 5' 3' (structured_RNA)
RNA: GCAUGUCCGGUUCCAUAGUAUAGUGGUUAGUACUGGGGACUUUAAAUCCCUUGACCUGGGUUCGAAUCCCAGUGGGACCUGCUUUUU
Kd (Mlp1 [2]; [4]): 687 ± 44 nM

CCCCCCCCCC (ssRNA) [C10]
binding result (Mlp1 [3]; label: 32P): no binding

CUGCUGUUUC (ssRNA) [U-1C]
binding result (Mlp1 [1]): binds

CUGCUGUUUU (ssRNA) [uridylate RNA of Supplementary Fig. S4b]
binding result (Mlp1 1-95): no binding | binding result (Mlp1 95-250): no binding

CUGCUGUUUU (ssRNA) [4U (CUGCUGUUUU-3'OH)]
binding result (Mlp1 1-250): binds | binding result (Mlp1 [3]): binds | binding result (Mlp1 Q11A/Y14A): no binding

B3: pre-tRNA LeuAAG 5' 3' (structured_RNA)
RNA: GAGCGAAGAUGAAGUGGCCGAGCGGUCUAAGGCGGUAGAUUAAGGCUCUAUUCCGAAAGGGCGCGAGUUCGAAUCUCGCCUUCAUCAGAUUUUU
Kd (Mlp1 [2]; tRNA fold): 586 ± 15 nM

B4: pre-tRNA LeuAAG 5'-leader only (+5'PPP) (structured_RNA)
RNA: GAGCGAAGAUGAAGUGGCCGAGCGGUCUAAGGCGGUAGAUUAAGGCUCUAUUCCGAAAGGGCGCGAGUUCGAAUCUCGCCUUCAUCA
Kd (Mlp1 [2]; tRNA fold): 714 ± 21 nM

B5: mature tRNA LeuAAG (structured_RNA)
RNA: GAUGAAGUGGCCGAGCGGUCUAAGGCGGUAGAUUAAGGCUCUAUUCCGAAAGGGCGCGAGUUCGAAUCUCGCCUUCAUCA
Kd (Mlp1 [2]; tRNA fold): 831 ± 33 nM

B6: pre-tRNA LeuAAG 3'-trailer only (structured_RNA)
RNA: GAUGAAGUGGCCGAGCGGUCUAAGGCGGUAGAUUAAGGCUCUAUUCCGAAAGGGCGCGAGUUCGAAUCUCGCCUUCAUCAGAUUUUU
Kd (Mlp1 [2]; label: 32P-UTP body label): 658 ± 36 nM

B7: mature tRNA GlnUUA (structured_RNA)
RNA: GGUUCCAUAGUAUAGUGGUUAGUACUGGGGACUUUAAAUCCCUUGACCUGGGUUCGAAUCCCAGUGGGACCU
Kd (Mlp1 [2]; [4]): 801 ± 62 nM

CUGCUGCCCC (ssRNA) [4C]
binding result (hLa): no binding

B8: pre-tRNA GlnUUA 3'-trailer only (structured_RNA)
RNA: GGUUCCAUAGUAUAGUGGUUAGUACUGGGGACUUUAAAUCCCUUGACCUGGGUUCGAAUCCCAGUGGGACCUGCUUUUU
Kd (Mlp1 [2]; label: 32P-UTP body label): 740 ± 40 nM

CUGCUGUUCU (ssRNA) [U-2C]
binding result (Mlp1 [1]): binds
